Experimental data as given in publication PMC3714108.
Like-named read-outs stand apart in the source and are kept apart here.

T1: CcrA (Staphylococcus aureus 923 (USA300, …, UniProt Q84BN8 1-449))
T1 sequence: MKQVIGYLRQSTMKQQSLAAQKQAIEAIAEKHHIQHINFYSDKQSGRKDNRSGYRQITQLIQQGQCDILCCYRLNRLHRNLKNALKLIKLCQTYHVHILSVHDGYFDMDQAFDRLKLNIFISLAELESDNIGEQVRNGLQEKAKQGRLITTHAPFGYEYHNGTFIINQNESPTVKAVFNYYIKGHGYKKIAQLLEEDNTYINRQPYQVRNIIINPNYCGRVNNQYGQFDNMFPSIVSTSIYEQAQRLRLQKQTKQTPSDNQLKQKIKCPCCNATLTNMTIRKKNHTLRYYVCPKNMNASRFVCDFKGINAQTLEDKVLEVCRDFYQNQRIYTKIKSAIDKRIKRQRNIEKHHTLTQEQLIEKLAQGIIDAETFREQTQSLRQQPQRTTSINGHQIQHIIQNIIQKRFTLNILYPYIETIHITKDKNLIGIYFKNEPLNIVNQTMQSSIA

T2: CcrB (Staphylococcus aureus 923 (USA300, …, UniProt Q9XB94 1-542))
T2 sequence: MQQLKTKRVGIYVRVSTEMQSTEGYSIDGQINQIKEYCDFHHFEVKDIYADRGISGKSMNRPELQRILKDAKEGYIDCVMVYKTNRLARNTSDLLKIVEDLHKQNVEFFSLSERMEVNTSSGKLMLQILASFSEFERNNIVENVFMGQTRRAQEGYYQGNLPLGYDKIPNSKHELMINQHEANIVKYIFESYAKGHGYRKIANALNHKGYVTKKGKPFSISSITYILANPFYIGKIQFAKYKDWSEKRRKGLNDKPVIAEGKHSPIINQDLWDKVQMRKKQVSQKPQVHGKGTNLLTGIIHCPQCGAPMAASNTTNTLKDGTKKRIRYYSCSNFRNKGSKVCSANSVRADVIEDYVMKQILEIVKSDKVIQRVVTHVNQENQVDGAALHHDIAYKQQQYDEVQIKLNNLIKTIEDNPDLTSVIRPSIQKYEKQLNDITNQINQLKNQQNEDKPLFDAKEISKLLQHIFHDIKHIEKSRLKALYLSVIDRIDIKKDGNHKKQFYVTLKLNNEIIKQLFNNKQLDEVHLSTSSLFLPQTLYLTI

B1: attB62 (dsDNA)
DNA 1: TACAGAGCATTTAAGATTATGCGAGGAGAGGCGTATCATAAGTAAAACTAAAAAATTCTGTA
DNA 2: TACAGAATTTTTTAGTTTTACTTATGATACGCCTCTCCTCGCATAATCTTAAATGCTCTGTA
B2: SCC half site 36 (dsDNA)
DNA 1: ATTTTTCAAAAACCGCATCATTAACTGATAAGCAGA
DNA 2: TCTGCTTATCAGTTAATGATGCGGTTTTTGAAAAAT
B3: attB ns half site 62 (dsDNA)
DNA 1: TACAGAGCATTTAAGATTATGCGAGGAGATGGCTGAGAACACCCCTTGTGAGGTACTTCATG
DNA 2: CATGAAGTACCTCACAAGGGGTGTTCTCAGCCATCTCCTCGCATAATCTTAAATGCTCTGTA
B4: attL58 (dsDNA)
DNA 1: TACAGAGCATTTAAGATTATGCGAGGAGAAGCTTATCATAAATGATGCGGTTTTTTCA
DNA 2: TGAAAAAACCGCATCATTTATGATAAGCTTCTCCTCGCATAATCTTAAATGCTCTGTA
B5: attSCC68 (dsDNA)
DNA 1: TTATTTTTTCAAAAACCGCATCATTAACTGATAAGCAGAAGCTTATCATAAATGATGCGGTTTTTTCA
DNA 2: TGAAAAAACCGCATCATTTATGATAAGCTTCTGCTTATCAGTTAATGATGCGGTTTTTGAAAAAATAA
B6: attR72 (dsDNA)
DNA 1: TTAATTTTTCAAAAACCGCATCATTAACTGATAAGCAGAGGCGTATCATAAGTAAAACTAAAAAATTCTGTA
DNA 2: TACAGAATTTTTTAGTTTTACTTATGATACGCCTCTGCTTATCAGTTAATGATGCGGTTTTTGAAAAATTAA

Legend:
Test in all cases: EMSA
[1] = target: T1, CcrA
[2] = target: T2, CcrB
[3] = target: T2, CcrB; remark: listed apart in the source
[4] = target: T1, CcrA; remark: listed apart in the source
[5] = target: T1, CcrA; remark: listed apart in the source
[6] = target: T1, CcrA; remark: listed apart in the source

Binder	binding result [1]	Kd [2]	binding result [6]	further results
B1	binds	~14.1 nM	–	–
B2	–	–	–	binding result [3]: binds; binding result [4]: no binding
B3	–	–	–	binding result [5]: binds
B4	binds	~14.1 nM	–	–
B5	–	~14.1 nM	no binding	–
B6	–	~14.1 nM	no binding	–
